From patent EP1230262B1 (BROWN UNIVERSITY RESEARCH FOUNDATION, dated 2017) come the findings set out here.

B1: decorin proteoglycan (core and side chains), recombinant, vaccinia system (other, UniProt P07585 31-359, looked up)
chain: DEASGIGPEVPDDRDFEPSLGPVCPFRCQCHLRVVQCSDLGLDKVPKDLPPDTTLLDLQNNKITEIKDGDFKNLKNLHALILVNNKISKVSPGAFTPLVKLERLYLSKNQLKELPEKMPKTLQELRAHENEITKVRKVTFNGLNQMIVIELGTNPLKSSGIENGAFQGMKKLSYIRIADTNITSIPQGLPPSLTELHLDGNKISRVDAASLKGLNNLAKLGLSFNSISAVDNGSLANTPHLRELHLDNNKLTRVPGGLAEHKYIQVVYLHNNNISVVGSSDFCPPGHNTKKASYSGVSLFSNPVQYWEIQPSTFRCVYVRSAIQLGNYK
modifications: glycosaminoglycan side chain
notes: also called DEC-PG; DECPG
B2: decorin core (no side chains), recombinant, vaccinia system (other, UniProt P07585 31-359, looked up)
chain: DEASGIGPEVPDDRDFEPSLGPVCPFRCQCHLRVVQCSDLGLDKVPKDLPPDTTLLDLQNNKITEIKDGDFKNLKNLHALILVNNKISKVSPGAFTPLVKLERLYLSKNQLKELPEKMPKTLQELRAHENEITKVRKVTFNGLNQMIVIELGTNPLKSSGIENGAFQGMKKLSYIRIADTNITSIPQGLPPSLTELHLDGNKISRVDAASLKGLNNLAKLGLSFNSISAVDNGSLANTPHLRELHLDNNKLTRVPGGLAEHKYIQVVYLHNNNISVVGSSDFCPPGHNTKKASYSGVSLFSNPVQYWEIQPSTFRCVYVRSAIQLGNYK

What all share (experiment): overlay assay with 35S in vitro translated sarcoglycan
In test [1] the target is T1, α-sarcoglycan, recombinant human, 35S-labelled, in vitro transcribed and translated (human, UniProt Q16586 1-387, limits assumed, 35S label; not glycosylated).
T1 construct: also called alpha-sarcoglycan
T1 sequence (looked up): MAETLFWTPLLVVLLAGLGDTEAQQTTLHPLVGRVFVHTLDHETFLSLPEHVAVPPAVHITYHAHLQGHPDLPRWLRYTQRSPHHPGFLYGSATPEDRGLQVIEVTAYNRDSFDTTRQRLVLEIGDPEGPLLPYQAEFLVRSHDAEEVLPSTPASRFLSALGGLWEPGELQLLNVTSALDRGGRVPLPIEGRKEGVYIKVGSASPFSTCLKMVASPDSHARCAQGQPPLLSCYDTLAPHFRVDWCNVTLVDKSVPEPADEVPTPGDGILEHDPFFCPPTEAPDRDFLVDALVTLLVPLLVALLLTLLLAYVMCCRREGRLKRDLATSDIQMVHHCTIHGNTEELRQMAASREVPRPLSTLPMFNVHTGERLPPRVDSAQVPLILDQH

Test [2] addresses B1.
Test [3] concerns the target B2.

Turning to B1, the binding result in test [1] is given as “no binding”. B2: the binding result in test [1] was “no binding”.

B3: γ-sarcoglycan, recombinant human, 35S-labelled, in vitro transcribed and translated (other, UniProt Q13326 1-291, looked up)
chain: MVREQYTTATEGICIERPENQYVYKIGIYGWRKRCLYLFVLLLLIILVVNLALTIWILKVMWFSPAGMGHLCVTKDGLRLEGESEFLFPLYAKEIHSRVDSSLLLQSTQNVTVNARNSEGEVTGRLKVGPKMVEVQNQQFQINSNDGKPLFTVDEKEVVVGTDKLRVTGPEGALFEHSVETPLVRADPFQDLRLESPTRSLSMDAPRGVHIQAHAGKIEALSQMDILFHSSDGMLVLDAETVCLPKLVQGTWGPSGSSQSLYEICVCPDGKLYLSVAGVSTTCQEHNHICL
modifications: 35S label; not glycosylated
notes: also called gamma-sarcoglycan
Take B3: the binding result in test [2] and in test [3] was “no binding” each time.
